Data from paper PMC3426363 (Pharmaceutical research, 2011).
Where two headings read alike, the source gives them in different places. One block for each molecule: values may come before it.

Key:
UGT1A10 = biological target: T1, UGT1A10 (Homo sapiens, UniProt Q9HAW8); assay: UGT1A10 glucuronidation kinetics of flavonols; type: in vitro ADME; conditions: substrate inhibition constant
T1 sequence (Q9HAW8 26-530): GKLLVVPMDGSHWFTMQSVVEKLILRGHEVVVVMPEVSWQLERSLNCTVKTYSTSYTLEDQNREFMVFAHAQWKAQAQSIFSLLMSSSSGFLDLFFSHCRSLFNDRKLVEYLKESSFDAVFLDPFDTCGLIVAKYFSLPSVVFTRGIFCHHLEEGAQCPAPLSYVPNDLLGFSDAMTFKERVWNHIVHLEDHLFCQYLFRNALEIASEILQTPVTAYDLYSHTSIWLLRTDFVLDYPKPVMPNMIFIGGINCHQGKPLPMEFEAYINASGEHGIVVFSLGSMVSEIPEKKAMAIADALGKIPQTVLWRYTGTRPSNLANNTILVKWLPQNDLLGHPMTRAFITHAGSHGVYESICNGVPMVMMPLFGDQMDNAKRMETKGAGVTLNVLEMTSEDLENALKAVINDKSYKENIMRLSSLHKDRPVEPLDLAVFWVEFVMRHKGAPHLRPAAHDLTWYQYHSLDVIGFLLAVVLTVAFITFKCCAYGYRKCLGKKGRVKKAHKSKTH

UGT1A1 [1] = biological target: T2, UGT1A1 (Homo sapiens, UniProt P22309); assay: UGT1A1 glucuronidation kinetics of flavonols; type: in vitro ADME; conditions: for Ks: substrate inhibition constant
T2 sequence (P22309 26-533): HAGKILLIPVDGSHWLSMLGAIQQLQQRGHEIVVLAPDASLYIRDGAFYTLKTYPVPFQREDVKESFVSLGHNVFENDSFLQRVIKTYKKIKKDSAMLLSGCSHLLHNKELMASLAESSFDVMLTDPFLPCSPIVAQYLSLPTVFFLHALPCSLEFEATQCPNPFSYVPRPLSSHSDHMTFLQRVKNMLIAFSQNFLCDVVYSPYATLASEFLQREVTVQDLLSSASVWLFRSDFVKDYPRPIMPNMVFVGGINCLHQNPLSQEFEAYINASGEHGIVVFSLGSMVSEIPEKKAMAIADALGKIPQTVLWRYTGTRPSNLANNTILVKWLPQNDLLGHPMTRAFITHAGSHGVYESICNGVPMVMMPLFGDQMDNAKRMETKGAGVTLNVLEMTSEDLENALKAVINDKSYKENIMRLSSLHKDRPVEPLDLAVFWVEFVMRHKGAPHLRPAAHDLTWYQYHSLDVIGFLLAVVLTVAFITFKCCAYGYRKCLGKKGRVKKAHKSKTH

UGT1A3 = biological target: T3, UGT1A3 (Homo sapiens, UniProt P35503); assay: UGT1A3 glucuronidation kinetics of flavonols; type: in vitro ADME; conditions: substrate inhibition constant
T3 sequence (P35503 29-534): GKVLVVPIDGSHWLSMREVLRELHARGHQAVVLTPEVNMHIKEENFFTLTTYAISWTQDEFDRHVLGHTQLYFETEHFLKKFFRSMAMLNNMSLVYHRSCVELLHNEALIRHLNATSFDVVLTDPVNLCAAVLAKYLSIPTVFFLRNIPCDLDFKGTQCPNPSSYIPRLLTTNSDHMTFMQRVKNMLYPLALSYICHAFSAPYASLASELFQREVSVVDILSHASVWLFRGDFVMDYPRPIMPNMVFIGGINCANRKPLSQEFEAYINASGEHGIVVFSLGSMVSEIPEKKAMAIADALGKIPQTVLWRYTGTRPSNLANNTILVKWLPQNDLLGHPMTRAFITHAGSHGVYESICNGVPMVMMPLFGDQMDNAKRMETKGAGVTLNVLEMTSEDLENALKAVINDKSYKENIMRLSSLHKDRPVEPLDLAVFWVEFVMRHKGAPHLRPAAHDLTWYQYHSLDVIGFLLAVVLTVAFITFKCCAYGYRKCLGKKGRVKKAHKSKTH

UGT1A7 = biological target: T4, UGT1A7 (Homo sapiens, UniProt Q9HAW7); assay: UGT1A7 glucuronidation kinetics of flavonols; type: in vitro ADME; conditions: formation of 3-O-glucuronide, substrate inhibition constant
T4 sequence (Q9HAW7 26-530): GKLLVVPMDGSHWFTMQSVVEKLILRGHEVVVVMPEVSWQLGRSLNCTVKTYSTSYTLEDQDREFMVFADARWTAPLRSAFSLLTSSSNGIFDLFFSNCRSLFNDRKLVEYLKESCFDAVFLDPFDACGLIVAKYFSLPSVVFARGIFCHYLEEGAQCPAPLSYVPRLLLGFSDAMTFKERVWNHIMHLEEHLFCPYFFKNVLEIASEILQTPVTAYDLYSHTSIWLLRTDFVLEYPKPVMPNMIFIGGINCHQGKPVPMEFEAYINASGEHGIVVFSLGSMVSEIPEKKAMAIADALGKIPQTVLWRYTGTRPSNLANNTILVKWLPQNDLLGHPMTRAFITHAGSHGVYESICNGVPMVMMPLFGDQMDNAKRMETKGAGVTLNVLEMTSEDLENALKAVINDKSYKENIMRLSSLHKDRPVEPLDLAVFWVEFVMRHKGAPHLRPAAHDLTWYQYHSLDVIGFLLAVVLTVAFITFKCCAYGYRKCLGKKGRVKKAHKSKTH

UGT1A9 = biological target: T5, UGT1A9 (Homo sapiens, UniProt O60656); assay: UGT1A9 glucuronidation kinetics of flavonols; type: in vitro ADME
T5 sequence (O60656 26-530): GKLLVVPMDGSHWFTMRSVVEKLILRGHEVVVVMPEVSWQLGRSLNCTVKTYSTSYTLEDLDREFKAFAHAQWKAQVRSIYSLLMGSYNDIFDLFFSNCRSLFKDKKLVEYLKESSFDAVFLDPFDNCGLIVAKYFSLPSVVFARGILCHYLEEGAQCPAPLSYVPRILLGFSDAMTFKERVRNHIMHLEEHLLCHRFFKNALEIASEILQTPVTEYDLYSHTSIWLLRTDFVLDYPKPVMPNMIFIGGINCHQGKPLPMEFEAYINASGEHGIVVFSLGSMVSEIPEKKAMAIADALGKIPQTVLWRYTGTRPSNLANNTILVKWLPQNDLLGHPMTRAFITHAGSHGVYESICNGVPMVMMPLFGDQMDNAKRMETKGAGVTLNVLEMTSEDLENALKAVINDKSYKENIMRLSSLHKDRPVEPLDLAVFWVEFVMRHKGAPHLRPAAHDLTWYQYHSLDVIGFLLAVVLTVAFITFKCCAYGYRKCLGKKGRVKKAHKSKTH

UGT1A1 [2] = biological target: T2, UGT1A1; conditions: cited from earlier work
[3] = substrate: O=c1c(O)c(-c2ccccc2)oc2cc(O)cc(O)c12; assay: UGT1A3 glucuronidation kinetics of flavonols; type: in vitro ADME, human; conditions: other: UGT1A3, pH 6.5
[4] = substrate: O=c1c(O)c(-c2ccccc2)oc2cc(O)ccc12; assay: UGT1A3 glucuronidation kinetics of flavonols; type: in vitro ADME, human; conditions: other: UGT1A3, pH 6.5
[5] = substrate: O=c1c(O)c(-c2ccc(O)cc2)oc2cc(O)cc(O)c12; assay: UGT1A3 glucuronidation kinetics of flavonols; type: in vitro ADME, human; conditions: other: UGT1A3; formation of 7-O-glucuronide; pH 6.5
[6] = substrate: O=c1c(O)c(-c2ccc(O)cc2)oc2cc(O)ccc12; assay: UGT1A1 glucuronidation kinetics of flavonols; type: in vitro ADME, human; conditions: other: UGT1A1, pH 6.5
[7] = substrate: O=c1c(O)c(-c2ccccc2)oc2cc(O)cc(O)c12; assay: UGT1A1 glucuronidation kinetics of flavonols; type: in vitro ADME, human; conditions: other: UGT1A1, pH 6.5
[8] = substrate: O=c1c(O)c(-c2ccccc2)oc2cc(O)ccc12; assay: UGT1A1 glucuronidation kinetics of flavonols; type: in vitro ADME, human; conditions: other: UGT1A1, pH 6.5
[9] = substrate: O=c1c(O)c(-c2ccc(O)cc2)oc2cc(O)cc(O)c12; assay: UGT1A1 glucuronidation kinetics of flavonols; type: in vitro ADME, human; conditions: other: UGT1A1; formation of 7-O-glucuronide; pH 6.5

- Ks (UGT1A10; formation of 3-O-glucuronide): 30.01 ± 8.00 µM
- Ks (UGT1A10; formation of 7-O-glucuronide): 51.37 ± 27.15 µM
- Ks (UGT1A1 [1]; formation of 7-O-glucuronide): 2.81 ± 0.67 µM
- Ks (UGT1A3; formation of 7-O-glucuronide): 7.52 ± 9.58 µM
Molecule: O=c1c(O)c(-c2ccc(O)cc2)oc2cc(O)cc(O)c12 [3,5,7,4’QHF, 3,5,7,4’-tetrahydroxyflavone]

- Ks (UGT1A7): 309.17 ± 127.39 µM
- Ks/Km ratio (UGT1A1 [1]; 3-O-glucuronidation): 0.38
- Ks/Km ratio (UGT1A1 [1]; 7-O-glucuronidation): 1.16
- Vmax (UGT1A1 [1]; formation of 3-O-glucuronide): 1.02 nmol/mg/min
- Ks (UGT1A1 [1]; formation of 3-O-glucuronide): 0.60 ± 0.38 µM
- Vmax (UGT1A1 [1]; formation of 7-O-glucuronide): 3.04 nmol/mg/min
- Ks (UGT1A1 [1]; formation of 7-O-glucuronide): 1.21 ± 0.23 µM
- Ks (UGT1A9; formation of 3-O-glucuronide, substrate inhibition constant): 30.13 ± 7.11 µM
- Vmax (UGT1A9; formation of 7-O-glucuronide): 2.04 nmol/mg/min
- Ks (UGT1A3; formation of 3-O-glucuronide): 100.05 ± 94.80 µM
- Ks (UGT1A3; formation of 7-O-glucuronide): 50.00 ± 80.17 µM
Molecule: O=c1c(O)c(-c2ccccc2)oc2cc(O)ccc12 [3,7DHF, 3,7-dihydroxyflavone]

Molecule: C#C[C@]1(O)CC[C@H]2[C@@H]3CCc4cc(O)ccc4[C@H]3CC[C@@]21C [ethinylestradiol]
- Km (UGT1A1 [2]; reported value): 49.8 µM
- Ks/Km ratio (UGT1A1 [2]; substrate inhibition at high concentrations of UDPGA): 1.61

B1: UGT1A3 (Homo sapiens) (protein)
chain: GKVLVVPIDGSHWLSMREVLRELHARGHQAVVLTPEVNMHIKEENFFTLTTYAISWTQDEFDRHVLGHTQLYFETEHFLKKFFRSMAMLNNMSLVYHRSCVELLHNEALIRHLNATSFDVVLTDPVNLCAAVLAKYLSIPTVFFLRNIPCDLDFKGTQCPNPSSYIPRLLTTNSDHMTFMQRVKNMLYPLALSYICHAFSAPYASLASELFQREVSVVDILSHASVWLFRGDFVMDYPRPIMPNMVFIGGINCANRKPLSQEFEAYINASGEHGIVVFSLGSMVSEIPEKKAMAIADALGKIPQTVLWRYTGTRPSNLANNTILVKWLPQNDLLGHPMTRAFITHAGSHGVYESICNGVPMVMMPLFGDQMDNAKRMETKGAGVTLNVLEMTSEDLENALKAVINDKSYKENIMRLSSLHKDRPVEPLDLAVFWVEFVMRHKGAPHLRPAAHDLTWYQYHSLDVIGFLLAVVLTVAFITFKCCAYGYRKCLGKKGRVKKAHKSKTH
- Km ([3]; formation of 3-O-glucuronide): 0.84 ± 0.18 µM
- Vmax ([3]; formation of 3-O-glucuronide): 0.17 ± 0.01 nmol/mg/min
- Vmax/Km ([3]; formation of 3-O-glucuronide): 200 µL/min/mg
- Km ([3]; formation of 7-O-glucuronide): 2.12 ± 1.24 µM
- Vmax ([3]; formation of 7-O-glucuronide): 3.44 ± 0.84 nmol/mg/min
- Vmax/Km ([3]; formation of 7-O-glucuronide): 1620 µL/min/mg
- Km ([4]; formation of 3-O-glucuronide): 8.81 ± 2.72 µM
- Vmax ([4]; formation of 3-O-glucuronide): 0.18 ± 0.02 nmol/mg/min
- Vmax/Km ([4]; formation of 3-O-glucuronide): 20 µL/min/mg
- Km ([4]; formation of 7-O-glucuronide): 7.02 ± 3.76 µM
- Vmax ([4]; formation of 7-O-glucuronide): 1.89 ± 0.36 nmol/mg/min
- Vmax/Km ([4]; formation of 7-O-glucuronide): 270 µL/min/mg
- Km [5]: 3.30 ± 3.10 µM
- Vmax [5]: 0.86 ± 0.35 nmol/mg/min
- Vmax/Km [5]: 260 µL/min/mg

B2: UGT1A1 (Homo sapiens) (protein)
chain: HAGKILLIPVDGSHWLSMLGAIQQLQQRGHEIVVLAPDASLYIRDGAFYTLKTYPVPFQREDVKESFVSLGHNVFENDSFLQRVIKTYKKIKKDSAMLLSGCSHLLHNKELMASLAESSFDVMLTDPFLPCSPIVAQYLSLPTVFFLHALPCSLEFEATQCPNPFSYVPRPLSSHSDHMTFLQRVKNMLIAFSQNFLCDVVYSPYATLASEFLQREVTVQDLLSSASVWLFRSDFVKDYPRPIMPNMVFVGGINCLHQNPLSQEFEAYINASGEHGIVVFSLGSMVSEIPEKKAMAIADALGKIPQTVLWRYTGTRPSNLANNTILVKWLPQNDLLGHPMTRAFITHAGSHGVYESICNGVPMVMMPLFGDQMDNAKRMETKGAGVTLNVLEMTSEDLENALKAVINDKSYKENIMRLSSLHKDRPVEPLDLAVFWVEFVMRHKGAPHLRPAAHDLTWYQYHSLDVIGFLLAVVLTVAFITFKCCAYGYRKCLGKKGRVKKAHKSKTH
- Km ([6]; formation of 3-O-glucuronide): 0.30 ± 0.05 µM
- Vmax ([6]; formation of 3-O-glucuronide): 0.68 ± 0.05 nmol/mg/min
- Vmax/Km ([6]; formation of 3-O-glucuronide): 2270 µL/min/mg
- Km ([6]; formation of 7-O-glucuronide): 0.43 ± 0.10 µM
- Vmax ([6]; formation of 7-O-glucuronide): 1.08 ± 0.13 nmol/mg/min
- Vmax/Km ([6]; formation of 7-O-glucuronide): 2520 µL/min/mg
- Km ([7]; formation of 3-O-glucuronide): 0.31 ± 0.10 µM
- Vmax ([7]; formation of 3-O-glucuronide): 0.82 ± 0.14 nmol/mg/min
- Vmax/Km ([7]; formation of 3-O-glucuronide): 2650 µL/min/mg
- Km ([7]; formation of 7-O-glucuronide): 0.51 ± 0.08 µM
- Vmax ([7]; formation of 7-O-glucuronide): 4.59 ± 0.46 nmol/mg/min
- Vmax/Km ([7]; formation of 7-O-glucuronide): 9000 µL/min/mg
- Km ([8]; formation of 3-O-glucuronide): 1.57 ± 1.09 µM
- Vmax ([8]; formation of 3-O-glucuronide): 1.02 ± 0.54 nmol/mg/min
- Vmax/Km ([8]; formation of 3-O-glucuronide): 650 µL/min/mg
- Km ([8]; formation of 7-O-glucuronide): 1.04 ± 0.19 µM
- Vmax ([8]; formation of 7-O-glucuronide): 3.04 ± 0.42 nmol/mg/min
- Vmax/Km ([8]; formation of 7-O-glucuronide): 2920 µL/min/mg
- Km [9]: 0.13 ± 0.03 µM
- Vmax [9]: 1.38 ± 0.14 nmol/mg/min
- Vmax/Km [9]: 10620 µL/min/mg
